Test results taken from the supplement of paper PMC10567573.

B1: CDKN1A (parent)
chain: RRQTSMTDFYHSKRRLIFSKRKP

Variants of: B1
Assay: protein stability index of a GFP-peptide fusion (GPS, HEK-293T) (PSI 1-6); higher = more stable
Conditions: c terminus: native
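Note: lentivirally expressed fusions sorted by FACS into six bins by GFP to DsRed ratio, PSI derived from sequencing read proportions per bin multiplied by bin number.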

Question: With RRQTSMTDFYHSKIRLIFSKRKP as the variant, how does the protein stability index read?
Answer: Its protein stability index is 2.18.

Question: Which protein stability index does the source give for RRQTSMTDFYHSKKRLIFSKRKP here?
Answer: Its protein stability index is 4.64.

Question: For RRQTSMTDFYHSKHRLIFSKRKP, which protein stability index is on record?
Answer: The protein stability index was 4.02.

Question: With RRQTSMTDFYHSKARLIFSKRKP as the variant, how does the protein stability index read?
Answer: Its protein stability index is 2.14.

Question: For RRQTSMTDFYHSKERLIFSKRKP, which protein stability index is on record?
Answer: Its protein stability index is 3.86.

Question: For RRQTSMTDFYHSKWRLIFSKRKP, which protein stability index is on record?
Answer: Its protein stability index is 3.61.

Question: With RRQTSMTDFYHSKCRLIFSKRKP as the variant, how does the protein stability index read?
Answer: The protein stability index was 2.69.

Question: For RRQTSMTDFYHSKMRLIFSKRKP, which protein stability index is on record?
Answer: The protein stability index was 3.31.

Question: Which protein stability index does the source give for RRQTSMTDFYHSKDRLIFSKRKP here?
Answer: Its protein stability index is 2.81.

Question: With RRQTSMTDFYHSKSRLIFSKRKP as the variant, how does the protein stability index read?
Answer: The protein stability index was 1.83.

Question: With RRQTSMTDFYHSKLRLIFSKRKP as the variant, how does the protein stability index read?
Answer: The protein stability index was 3.27.

Question: With RRQTSMTDFYHSKQRLIFSKRKP as the variant, how does the protein stability index read?
Answer: The protein stability index was 4.01.

Question: For RRQTSMTDFYHSKNRLIFSKRKP, which protein stability index is on record?
Answer: The protein stability index was 2.75.

Question: For RRQTSMTDFYHSKTRLIFSKRKP, which protein stability index is on record?
Answer: Its protein stability index is 1.99.

Question: Which protein stability index does the source give for RRQTSMTDFYHSKRRKIFSKRKP here?
Answer: Its protein stability index is 2.21.

Question: For RRQTSMTDFYHSKRRPIFSKRKP, which protein stability index is on record?
Answer: Its protein stability index is 3.36.

Question: With RRQTSMTDFYHSKRRGIFSKRKP as the variant, how does the protein stability index read?
Answer: Its protein stability index is 3.3.

Question: Which protein stability index does the source give for RRQTSMTDFYHSKRRYIFSKRKP here?
Answer: The protein stability index was 1.65.

Question: Which protein stability index does the source give for RRQTSMTDFYHSKRRCIFSKRKP here?
Answer: Its protein stability index is 2.32.

Question: For RRQTSMTDFYHSKRRTIFSKRKP, which protein stability index is on record?
Answer: Its protein stability index is 2.17.

Question: Which protein stability index does the source give for RRQTSMTDFYHSKRRSIFSKRKP here?
Answer: Its protein stability index is 2.86.

Question: Which protein stability index does the source give for RRQTSMTDFYHSKRRFIFSKRKP here?
Answer: Its protein stability index is 3.4.

Question: With RRQTSMTDFYHSKRRMIFSKRKP as the variant, how does the protein stability index read?
Answer: The protein stability index was 1.54.

Question: Which protein stability index does the source give for RRQTSMTDFYHSKRRQIFSKRKP here?
Answer: Its protein stability index is 2.53.

Question: For RRQTSMTDFYHSKRRHIFSKRKP, which protein stability index is on record?
Answer: The protein stability index was 2.87.

Question: With RRQTSMTDFYHSKRRLILSKRKP as the variant, how does the protein stability index read?
Answer: The protein stability index was 1.65.

Question: Which protein stability index does the source give for RRQTSMTDFYHSKRRLIESKRKP here?
Answer: The protein stability index was 3.49.

Question: With RRQTSMTDFYHSKRRLIRSKRKP as the variant, how does the protein stability index read?
Answer: The protein stability index was 2.05.

Question: Which protein stability index does the source give for RRQTSMTDFYHSKRRLIDSKRKP here?
Answer: Its protein stability index is 3.34.

Question: With RRQTSMTDFYHSKRRLITSKRKP as the variant, how does the protein stability index read?
Answer: Its protein stability index is 2.45.

Question: With RRQTSMTDFYHSKRRLISSKRKP as the variant, how does the protein stability index read?
Answer: Its protein stability index is 3.17.

Question: Which protein stability index does the source give for RRQTSMTDFYHSKRRLIASKRKP here?
Answer: Its protein stability index is 2.87.

Question: Which protein stability index does the source give for RRQTSMTDFYHSKRRLIVSKRKP here?
Answer: Its protein stability index is 2.3.

Question: Which protein stability index does the source give for RRQTSMTDFYHSKRRLIYSKRKP here?
Answer: The protein stability index was 2.46.

Question: Which protein stability index does the source give for RRQTSMTDFYHSKRRLIISKRKP here?
Answer: Its protein stability index is 2.23.

Question: Which protein stability index does the source give for RRQTSMTDFYHSKRRLIKSKRKP here?
Answer: Its protein stability index is 2.26.

Question: Which protein stability index does the source give for RRQTSMTDFYHSKRRLIWSKRKP here?
Answer: Its protein stability index is 2.28.

Question: Which protein stability index does the source give for RRQTSMTDFYHSKRRLIPSKRKP here?
Answer: The protein stability index was 2.82.

Question: With RRQTSMTDFYHSKRRLIQSKRKP as the variant, how does the protein stability index read?
Answer: Its protein stability index is 1.79.

Question: With RRQTSMTDFYHSKRRLICSKRKP as the variant, how does the protein stability index read?
Answer: The protein stability index was 1.69.

Question: For RRQTVMTDFYHSKRRLIFSKRKP, which protein stability index is on record?
Answer: The protein stability index was 2.27.

Question: Which protein stability index does the source give for RRQTYMTDFYHSKRRLIFSKRKP here?
Answer: Its protein stability index is 2.19.

Question: For RRQTSMTDFYHSKRRLIFSKFKP, which protein stability index is on record?
Answer: The protein stability index was 2.03.

Question: For RRQTSMTDFYHSKRRLIFSKEKP, which protein stability index is on record?
Answer: The protein stability index was 3.44.

Question: Which protein stability index does the source give for RRQTSMTDFYHSKRRLIFSKGKP here?
Answer: Its protein stability index is 3.01.

Question: Which protein stability index does the source give for RRQTSMTDFYHSKRRLIFSKAKP here?
Answer: Its protein stability index is 2.5.

Question: With RRQTSMTDFYHSKRRLIFSKCKP as the variant, how does the protein stability index read?
Answer: The protein stability index was 3.54.

Question: Which protein stability index does the source give for RRQTSMTDFYHSKRRLLFSKRKP here?
Answer: The protein stability index was 3.47.

Question: Which protein stability index does the source give for RRQTSMTDFYHSKRRLYFSKRKP here?
Answer: The protein stability index was 2.76.

Question: With RRQTSMTDFYHSKRRLKFSKRKP as the variant, how does the protein stability index read?
Answer: Its protein stability index is 1.86.

Question: Which protein stability index does the source give for RRQTSMTDFYHSKRRLSFSKRKP here?
Answer: Its protein stability index is 2.99.

Question: With RRQTSMTDFYHSKRRLAFSKRKP as the variant, how does the protein stability index read?
Answer: Its protein stability index is 2.48.

Question: Which protein stability index does the source give for RRQTSMTDFYHSKRRLEFSKRKP here?
Answer: Its protein stability index is 3.68.

Question: For RRQTSMTDFYHSKRRLTFSKRKP, which protein stability index is on record?
Answer: The protein stability index was 2.63.

Question: Which protein stability index does the source give for RRQTSMTDFYHSKRRLGFSKRKP here?
Answer: The protein stability index was 1.79.

Question: With RRQTSMTDFYHSKRRLPFSKRKP as the variant, how does the protein stability index read?
Answer: The protein stability index was 3.06.

Question: For RRQTSMTDFYHSKRRLMFSKRKP, which protein stability index is on record?
Answer: The protein stability index was 3.71.

Question: With RRQTSMTTFYHSKRRLIFSKRKP as the variant, how does the protein stability index read?
Answer: Its protein stability index is 3.06.

Question: For RRQTSMTEFYHSKRRLIFSKRKP, which protein stability index is on record?
Answer: Its protein stability index is 3.76.

Question: With RRQTSMTKFYHSKRRLIFSKRKP as the variant, how does the protein stability index read?
Answer: The protein stability index was 3.12.

Question: With RRQTSMTYFYHSKRRLIFSKRKP as the variant, how does the protein stability index read?
Answer: The protein stability index was 1.55.

Question: Which protein stability index does the source give for RRQTSMTGFYHSKRRLIFSKRKP here?
Answer: Its protein stability index is 2.29.

Question: For RRQTSMTPFYHSKRRLIFSKRKP, which protein stability index is on record?
Answer: The protein stability index was 2.14.

Question: With RRQTSMTRFYHSKRRLIFSKRKP as the variant, how does the protein stability index read?
Answer: Its protein stability index is 1.14.

Question: For RRQTSMTSFYHSKRRLIFSKRKP, which protein stability index is on record?
Answer: The protein stability index was 2.95.

Question: With RRQTSMTLFYHSKRRLIFSKRKP as the variant, how does the protein stability index read?
Answer: Its protein stability index is 2.32.

Question: Which protein stability index does the source give for RRQTSMTFFYHSKRRLIFSKRKP here?
Answer: Its protein stability index is 3.24.

Question: With RRQTSMTMFYHSKRRLIFSKRKP as the variant, how does the protein stability index read?
Answer: Its protein stability index is 2.65.

Question: Which protein stability index does the source give for RRQTSMRDFYHSKRRLIFSKRKP here?
Answer: The protein stability index was 1.87.

Question: Which protein stability index does the source give for RRQTSMHDFYHSKRRLIFSKRKP here?
Answer: Its protein stability index is 2.4.

Question: Which protein stability index does the source give for RRQTSMQDFYHSKRRLIFSKRKP here?
Answer: Its protein stability index is 2.1.

Question: With RRQTSMWDFYHSKRRLIFSKRKP as the variant, how does the protein stability index read?
Answer: Its protein stability index is 1.87.

Question: Which protein stability index does the source give for RRQTSMKDFYHSKRRLIFSKRKP here?
Answer: Its protein stability index is 2.19.

Question: With RRQTSMYDFYHSKRRLIFSKRKP as the variant, how does the protein stability index read?
Answer: Its protein stability index is 1.79.

Question: Which protein stability index does the source give for RRQTSMCDFYHSKRRLIFSKRKP here?
Answer: The protein stability index was 1.94.

Question: Which protein stability index does the source give for RRQTSMLDFYHSKRRLIFSKRKP here?
Answer: Its protein stability index is 1.8.

Question: For RRQTSMNDFYHSKRRLIFSKRKP, which protein stability index is on record?
Answer: The protein stability index was 3.04.

Question: With RRQTSMFDFYHSKRRLIFSKRKP as the variant, how does the protein stability index read?
Answer: Its protein stability index is 2.06.

Question: With RRQTSMSDFYHSKRRLIFSKRKP as the variant, how does the protein stability index read?
Answer: The protein stability index was 2.44.

Question: With RRQTSMEDFYHSKRRLIFSKRKP as the variant, how does the protein stability index read?
Answer: Its protein stability index is 3.61.

Question: With RRQTSMTDFYHSKRRLIFFKRKP as the variant, how does the protein stability index read?
Answer: Its protein stability index is 2.44.

Question: With RRQTSMTDFYHSKRRLIFQKRKP as the variant, how does the protein stability index read?
Answer: Its protein stability index is 2.08.

Question: With RRQTSMTDFYHSKRRLIFIKRKP as the variant, how does the protein stability index read?
Answer: Its protein stability index is 2.54.

Question: Which protein stability index does the source give for RRQTSMTDFYHSKRRLIFWKRKP here?
Answer: The protein stability index was 1.71.

Question: For RRQTSMTDFYHSKRRLIFDKRKP, which protein stability index is on record?
Answer: Its protein stability index is 1.43.

Question: For RRQTSMTDFYHSKRRLIFKKRKP, which protein stability index is on record?
Answer: The protein stability index was 1.91.

Question: For RRQTSMTDFYHSKRRLIFYKRKP, which protein stability index is on record?
Answer: Its protein stability index is 2.84.

Question: Which protein stability index does the source give for RRQTSMTDFYHSKRRLIFAKRKP here?
Answer: The protein stability index was 2.87.

Question: With RRQTSMTDFYHSKRRLIFLKRKP as the variant, how does the protein stability index read?
Answer: Its protein stability index is 2.33.

Question: With RRQTSMTDFYHSKRRLIFHKRKP as the variant, how does the protein stability index read?
Answer: Its protein stability index is 1.53.

Question: Which protein stability index does the source give for RRQTSMTDFYHSKRRLIFRKRKP here?
Answer: The protein stability index was 2.46.

Question: Which protein stability index does the source give for RRQTSMTDFYHSKRRLIFTKRKP here?
Answer: The protein stability index was 1.77.

Question: Which protein stability index does the source give for RRQTSMTDFYHSKRRLIFPKRKP here?
Answer: Its protein stability index is 2.08.

Question: For RRQTSMTDFYHSKRRLIFCKRKP, which protein stability index is on record?
Answer: Its protein stability index is 2.57.

Question: With RRQTSMTDFYHSKRRLIFMKRKP as the variant, how does the protein stability index read?
Answer: The protein stability index was 2.96.

Question: Which protein stability index does the source give for RRQTSMTDFYHSKRRLIFNKRKP here?
Answer: The protein stability index was 1.85.

Question: Which protein stability index does the source give for RRQTSMTDFYHSKRYLIFSKRKP here?
Answer: Its protein stability index is 2.23.
